Results on one substance are retold here after publication PMC7673715.

This assay concerns the target MyoVa^GTD (mouse) (UniProt Q99104). Kind of assay: ITC. In general terms: Isothermal titration calorimetry measures the heat released or taken up as one component is titrated into another.

Substance Spir2^GTBM (domain or fragment) showed a fold higher affinity than MICAL1^GTBM of 25 fold.
